From the nanobody polyreactivity screen of Harvey et al. (2022)

Test: yeast display, Sf9 membrane polyspecificity reagent, FACS + sequencing; frameworks hold sequencing errors
In short: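 Using colony PCR, genes from sorted yeast display clones were amplified, then sequenced on MiSeq at 2 × 250 and filtered by CDR length. The clones had been stained with 10% biotinylated, detergent-solubilized Sf9 membrane reagent for 1 hour at 4 °C and sorted by FACS into low and high (top ~1%) gates on anti-HA and streptavidin fluorescence. Polyreactivity labels come from the gate of origin.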

| Sequence | polyreactivity (PSR sort gate) |
| --- | --- |
| QVQLVESGGGLVQAGGSLRLSCAASGRISRTNAMGWYRQAPGKERELVATITRGGNTNYADSVKGRFTISRDNAKNTVYLPMNSLKPEDTAVYYCAALGRYLRTYRGYVWQFDSWGQGTKVTVSS | high polyreactivity |
| QVQLVESGGGLVQEGGSLRLSCAASGITFGRYAMGWYRQAPGKERELVAAISWSGGSTYYADSVKGRFTISRDNAKITVYLQMNSLKPEDTAVYSCNARGFPGKFGYWGQGTQVTVSS | high polyreactivity |
| QVQLVESGGGLVQAGGSLRLSCAASGIIFVTYAMGWNRQAPGKEREFVAGINWNGGSTYYADSVKGRFTISRDNAKNTVYLQMNSLKPEDTAVYYCNAENYRVRQRSSVKYDYWGQVTQVTVSS | low polyreactivity |
| QVQLVESGVGLVQAGGSLRLSCAASGRIFTYYAMGWYRQAPGKERELVAVISSVGGTYYADSVKGRFTISRDNAKNTVYLQMNSLKPEDTAVYYCAVGKIWSRRSSTSRFGYWGQGTQVTVSS | high polyreactivity |
| QVQLVESGGGIVQAGGSLRLICAASGYTFNYYAMGWYRQAPGKEREFVASTYADSVKGRFTISRDNAKNTVYLQMNSLKPEDTAVYYCNARNLGRYLVLSYGYWGQGTQVTVSS | low polyreactivity |
| QVQLVESGGGLVQAGGSLRLSCAASGSTFYRNAMGWYIQAPGKVRELVAAISQSGGRTYYADSVKGRFTISRDNAKNTVYLQMNSLKPEDTAVYYCATAFRKDRGFYPSRDYWGQGTQVTVSS | high polyreactivity |
| QVQLVESGGGLVQEGGSLRLSCAASGRNFGRYAMVRYRQAPGKERELVAAISSSGVATYYADSVKGRFTISRDNAKNTVYLQMNSLKPEDTEVYYCNSLYRVFYGFYYWGQGTQVTVSS | high polyreactivity |
| QVQLVESGGGLVQAGCSLRLSCAASGFIFWLYAMGWYRQAPGKERELVASINWSGGDTYYADSVKGRFTISRDNAKNTVYLQMNSLKPEDTAVYYCNAIVLDSKSSFDYWGQGTQVTVSS | low polyreactivity |
| QVQLVDSGGGLVQAGGSLRLSCDASGSILAQYAMGWYRQAPGKEREFVAAISRRGVRTNYADSVKGRFTISRDNAKNTDYLQMNSLKHEDTAVYYCAAALYTPSLNSAFDYWGQGTQVTVSS | high polyreactivity |
| QVQLVESGGGLVHAGGTLRLSCAASGSIFARYAMGWYRQAPVKERELVAAISRNGGSTYYADSVKGRFTISRDNAKNTVYLQMNSLNPEDTAVYYCAASYYVLYTREYDYWGQGSQVTVSS | low polyreactivity |
| QVQLVESGGGLVQSGGSLRLSCAASGRIFYYNAMGWYRQAPGKERELVAAITSSSGSSTYYADSVKGRFTISRDNAKNTVYLQMNSLKPEDTAVYYCAADATFIIRYLSRSDYWGQGTQVTVSS | low polyreactivity |
| QVQLVESGGGLVQGGGSLSLSCAASGITFLNYAMGWYRQAPGKERELVAAITWRGGRTYYADSVKGRFTISRDNEKNTVYLQMNSLKPEDTAVYYCARRPGYALTWRVSGRYDYWGQGTQVTVSS | high polyreactivity |
| QVQLVESGGGLVQAGGSLRLSCAASGRTFWYYAMGWYRQAPGHERELVAAITGRGGRTYYADSVTGRFTISRDNAKNTVYLQMNSLKPEDTAVYYCAARLPYLGGYDYWGQGTQVTVSS | high polyreactivity |
| QVQLVESGGGLVQAGGSLRLSCAASGITFFLYAMGWYRQAPGKERELVAVISASGGSTYYADSVKGRFTISRDNAKNTVYLQMNSLKPDDTAVYYCNAYGAFIGYDSWGQGTQVTVSS | high polyreactivity |
| QVQLQESGGGLVQAGGSLRLSCAASGSIFDYVSMGWYRQAPGEERELVVTITLGSNTYYADSVKGRFTISSDIAKNTVYLQMNSLNPVDTAVYYCAASALWGYVYPYWGLGTQVTVSS | high polyreactivity |
| QVQLVESLVGLDQAGGSLRLSCSASGFTIPRYAMGWSRQAHGKESELVAAITSGGSTYYADSVKGRFTISRDNAKNNVYLQMNSLKTEVTAVYFCAADGLCGSRFYSWGLGTQVTVSS | high polyreactivity |
| QVQLVESGGCLVQAGGSLRLSCAASGLTFIVYAMGWYRQAPGKERELVADITWSGGSTYYADSVKGRYTISRDNAKITVYLQMNSLKPVDTAVYYCNRQSAKIMDYWGQGTQVNVSS | low polyreactivity |
| QVQLVESGGGLVQAGGSLRLSSAASGSTFPYNAMGWYRQAPGKARELVAAITSRGGSTYYADSVKGRFTISRDNAKNTVYLQMNSLKPEDTAVYYCATPGDTYGWTRRRYYYWGQGTQVTVSS | high polyreactivity |
| QDQLVESGGGLVQAGGSLRLSCAASGRIFQANAMGWYRQAPGKERELVASISSGGSTNYADSVKGRFTISRDNAKNTVYLQMNRLKPEDTAVYYCAARHPSSAYWVGYYWYDYWGQGTQVTVSS | low polyreactivity |
| QVQLVESGGGLVQAGGSLRLSCAASGSLFNRNVMGWYRQAPGKERELVAAMTRGGRTSYADSVKGRFTISRDNAKNTVYLQMNSLKPEDTAGYYCAARRGYWVDYWGQGTQVTVSS | high polyreactivity |
| QVQLVESGGGLVQAGGSLRLSCAASGYIFVRNAMGWYRQAPGKEREFVAAISGSGGSTYYADSVKGRFTISRDNAKNTVYFQMNSMKPEDTAVYYCAADYATVTWRGIAYDYWGQGTQVTVSS | low polyreactivity |
| QVQLVESGGGLVQAGGSLRLSCAASGFTLFVYTMGWYRQAPGKERELVAAISSGDSTYYADSVKGRFTISRDNAKNTVYLQMNSLKPEDTAVYYCAAEWSGEAAWQVGAEDDYWGQGTQVTVSS | low polyreactivity |

| Sequence | polyreactivity (PSR sort gate) |
| --- | --- |
| QVQLVESGGGLVQAGGSLRLSCGATGSIFKTYAMGWYRQAPGKERELVAAISQRGGSTYYADSVKGRFTISRDNAKNTVYLQMNSLKPEDTAVYYCAARYAYQSYLYRFDYWGQGTQVTVSS | high polyreactivity |
| QVQLVESGGGLVQAGGSLRLSCAASGSIFPLYAMGWYRQAPGKERELVAAISWSGGSTYYADSVKGRFTISRDNAKNTVYLQMNSLKPEDTAVYYCATLYISTSGYIYEGDYWGQGTQVTVSS | high polyreactivity |
| QVQLVESGGGLVQAGGSHRLSCAASGFIFYSNAMGWYRQAPGKERELVAAITSGGSTYYADSVKGRFTISRDNAKNTVYLQMNSLKPEDTAVYYCNKARRWRGYDYWGQGTLVTVSS | high polyreactivity |
| QVQLVDSGGGVVQAGGSLRLSCAASGFIFHRYAMGWYRPAPGKERELVASITRSGGSTYYADSVKGRFTISRDNAKNTVYLQMNSLKPEDTAVYYCAAQLPAYYKYPRHDYWGQGTQVTVSS | high polyreactivity |
| QVQLVESGGGLVQAGGSLRLSCAASGNTITWNTMGWYRQAPGKERELVAVITSDGSTYYADSVKGRFTISRDNAKNSVYLQMNRLKPEDTSVYYCNALCAEWYPEEDYWGQGTQVTVSS | low polyreactivity |
| QVQLVESGGGLVQAGGSLRLSGAASGRIFYYNALGWYRPAPGKEREFVAAITWSGTSTNYADSLKGRFTISRDNAKNTVYLQMNSLKPEDTAVYYCAAQLRNSSRTYYRSGYWGQGTQVTVSS | high polyreactivity |
| QVQLVESGGGLVQAGGSLRLSCAASGSIFSWYAMGWYRQAPGKEREFVAAITWGTGGTYYADSVKGRFTISRDNAKNTVYLQMNSLKLEDTAVYYCAKTRSYGRSGVSRRYGFYYWGQGTQVTVSS | high polyreactivity |
| QVQLVESGGGLVQAGGSLRLSCAASGRTFWGYAMGWYRQAPGKERELVAAISWSGTSTYYADSVKGRFTISRDNAKNTVYLQMNSLKPEDTAVYYCARAVNDWRRKYNYWGQGTQVTVSS | high polyreactivity |
| QVQLVESGGGLVQAGGSLRLSCAASGMIFPGNTMGWYRQAPGKERELVAAITNGVSTNYADSVKGRFTISRDNAKNTVYLQMNSLKPEDTAVYYCNGPFNYVGGYSNYSGFVYWGQGTQVTVSS | high polyreactivity |
| QVQLVESGGGLVQAGGSLRLSCAASGIIFTYAMGWYRQAPGKERELVAAIDWRGGRTYYADSVKGRFTISRDNAKNTVYLQMNSLKPEDTAVYYCAVGVLYAGYFYRYRYYYWGQGTQVTVSS | high polyreactivity |
| QVQLVESGGGLVQAGGSLRLSCAASGRTLYKYAMGWYRQAPGKERELVATISSGGRTNYADSVKGRFTISRDNAKNPVYLQMNSLKPEDTAVYYCAADVVRYYYTYDYWGQGTQVTVSS | low polyreactivity |
| QVQLVESGGGLFQAGGSLRLSCAASGRIFWNYAMGWYRQAPGKERELVASINWSGGSTYYADSVKGRFTISRDNAKNTVYLQMNSLKPEDTAVYYCNKDGRVYLDHDYWGQGTQVTVSS | low polyreactivity |
| QVQLVESGGVLVQAGGSLRLSCAASGFTFAKNAMGWYRQAPGKERELVATISRSGGSTYYADSVKGRFTISRDKAKNTVYLQMNSLKPEDTAVYYCNKKYKYLYDYWGQGTQVTVSS | high polyreactivity |
| QVQLVESGGGLVQAGGSLRLSCAASGSIFHYNAMGWYRQAPGKEREFVAVISKSSGSTFYADSVKGRLTISRDNAKNTVYLQMNSLKPEDTAVYYCNRVTKRYRKIGNYWGQGTQVTVSS | high polyreactivity |
| QVQLVESGGGLVQAGGSLRLSCAASGLTFTLYTMGWYRQAPGKEREFVAVISGTGGRTYYADSVKGRFTISRDNAKNTVYLQMNSLKPEDTAVYYCATCYSFRYWGQGTQVTVSS | high polyreactivity |
| QFQLVESGGGLVQAGGSLRLSCAASGYTFRYYSMGWYRQATGKERELVAAISRSGGSTYYADSVKGRFTISRDYAKNTVYLQMYSLKPEDTAVYYCAADYSYRTRGNRYRLDYWGQGTQVTVSS | high polyreactivity |
| QVQLVESGGGLVQAGGSLRLSSAASGSIFRFYTMGWYRQAPGKERELVAAISASGGNTYYADSVKGRFTISRDNAKNTVYLQMNSLKPEDTAVYYCARVKFTKYDYWGQGTQVTVSS | high polyreactivity |
| QGQLVETGGGLGQAGGSLRLSCAASGRIFPTNAMGWSRPAPGKERELVAAIPVSGGSTFYADSVKGRFTISRDNAKNTVYLQLNSLKPDDTAVDDCAVDDRASVGSRLDHWGQGTQVTVSS | low polyreactivity |
| QVQLVESGGGLVQAGGSLRLSCAASGNTFYVNVMGWYRQAPGKEREFVAAISTRGVSTSYADSVKGRVTISRDNAKNTVYLQMNSLKPEDTAVYYCAASFRRPQPKGSTYGYWGQGTQVTVSS | high polyreactivity |
| QVHLVESGGGLVQAGGSLRLSCAASGSTFFYYAMGWYRQAPGKERELVAAISNSGGNTFYADSVKGRFTISRDNAKNTVYLQMNSLKPEDTAVYYCAADEIGHFQWRDGDYWGQGTQVTVSS | low polyreactivity |
| QVQIVESGGGLVQAGGSLRLICAASGRIFRYYVMGWYRQAPGKERELVATITSGGSTNYADSVKGRFTISRDNAKNTVYLQMNSLKPEDTAVYYCNRDRYPYYYAYNFWGQGTQVTVSS | low polyreactivity |
